In patent US20230240981A1 (THE REGENTS OF THE UNIVERSITY OF CALIFORNIA, priority 2020, published 2023):

What was measured:
[1] = MALDI-TOF mass spectrum of native and microneedle-released insulin/glucagon; format: physicochemical; settings: throughout the polymerization process
[2] = physiological pH

## insulin: Human recombinant insulin purchased from Thermo Fisher Scientific
[1]
  integrity of protein released from microneedles: stayed intact
[2]
  solubility: high solubility
